Patent publication US7662384B2, “Use of anti-α5β1 antibodies to inhibit cancer cell proliferation” (Facet Biotech Corporation, priority 2004, dated 2010)

Assays:
[1] = target: α5β1 integrin binding to fibronectin (Homo sapiens, UniProt P05556+P08648); settings: cited from earlier work
[2] = predicted human serum levels of M200 from monkey PK data; set-up: species or system humans
Method: At the highest dose in humans (15.0 mg/kg), the mean peak after 5 doses was predicted to be 592 μg/mL with the range of variability in humans predicted as 320 to 829 μg/mL. Table 3, was compiled using PK data from the monkey studies to predict the peak and tough serum concentrations (Cmax and Cmin, respectively) for each dose at each dose level in humans.

[3] = Phase I dose-escalation study: safety / adverse events; assay type: in vivo, human
Method: The dosing levels and schedule used in the study were as follows. M200 was administered to the 21 patients on days 1, 15, 22, 29, and 36. The dosing levels and numbers of patients per level were: 0.5 mg/kg (1 patient), 1.0 mg/kg (2 patient), 2.5 mg/kg (3 patients), 5.0 mg/kg (3 patients), 10.0 mg/kg (6 patients) and 15 mg/kg (6 patients). The dose was administered as an intravenous infusion over 1 hour. The first and second doses were separated by a two week period to allow sampling for single-dose pharmacokinetic data. The real-time PK measurements performed following the first dose were used to predict each patient's peak serum concentration following the fifth dose. If the predicted peak serum concentration following the fifth dose was <750 μg/mL, the patient received all 5 doses of M200. The remaining 3 doses were given weekly and followed by a 45-day evaluation period.
Adverse events were graded using the National Cancer Institute (NCI) Common Terminology Criteria for Adverse Events (CTCAE), version 3.0. Dose-limiting toxicity was defined as any Grade-3 or Grade-4 adverse event, excluding scheduled hospitalizations or elective surgeries. Grade-3 or Grade-4 adverse events thought to be unrelated to M200 were excluded where appropriate following a review with the medical monitor and regulatory agencies.

[4] = target: T1, α5β1 sites on monocytes (Homo sapiens, UniProt P05556+P08648); assay: Phase I study: saturation of α5β1 sites on monocytes by flow cytometry; assay type: in vivo; settings: 10 mg/kg dosage
T1 construct: endogenous in cells; host or cells: CD14+ monocytes in peripheral blood of human patients
T1 sequence (P08648 42-894 limits assumed): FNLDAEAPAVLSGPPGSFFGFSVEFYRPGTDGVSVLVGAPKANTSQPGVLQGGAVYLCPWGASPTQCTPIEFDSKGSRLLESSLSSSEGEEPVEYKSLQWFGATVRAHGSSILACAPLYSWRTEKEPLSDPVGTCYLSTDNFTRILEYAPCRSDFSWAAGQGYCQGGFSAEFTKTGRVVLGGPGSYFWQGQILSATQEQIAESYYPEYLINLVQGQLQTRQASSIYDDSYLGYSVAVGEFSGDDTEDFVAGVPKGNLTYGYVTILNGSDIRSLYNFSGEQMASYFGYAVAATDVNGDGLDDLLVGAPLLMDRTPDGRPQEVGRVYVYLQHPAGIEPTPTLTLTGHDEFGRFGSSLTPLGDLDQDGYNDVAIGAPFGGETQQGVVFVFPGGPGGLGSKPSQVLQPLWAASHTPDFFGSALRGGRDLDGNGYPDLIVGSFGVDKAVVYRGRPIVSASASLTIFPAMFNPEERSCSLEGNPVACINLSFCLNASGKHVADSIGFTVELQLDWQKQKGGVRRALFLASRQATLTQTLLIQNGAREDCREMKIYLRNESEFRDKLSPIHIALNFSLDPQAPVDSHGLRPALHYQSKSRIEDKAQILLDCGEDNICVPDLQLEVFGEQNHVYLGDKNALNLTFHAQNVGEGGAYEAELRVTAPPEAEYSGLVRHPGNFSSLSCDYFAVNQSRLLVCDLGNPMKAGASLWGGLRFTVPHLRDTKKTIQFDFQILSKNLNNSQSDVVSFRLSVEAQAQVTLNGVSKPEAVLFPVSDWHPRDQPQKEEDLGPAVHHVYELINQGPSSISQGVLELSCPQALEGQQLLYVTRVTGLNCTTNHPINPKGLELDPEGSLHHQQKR
T1 sequence (P08648 895-1049 limits assumed): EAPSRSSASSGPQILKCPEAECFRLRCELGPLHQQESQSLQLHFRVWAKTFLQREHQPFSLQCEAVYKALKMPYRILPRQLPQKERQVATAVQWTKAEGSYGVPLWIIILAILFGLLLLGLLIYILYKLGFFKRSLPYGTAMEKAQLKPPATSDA
T1 sequence (P05556 21-798): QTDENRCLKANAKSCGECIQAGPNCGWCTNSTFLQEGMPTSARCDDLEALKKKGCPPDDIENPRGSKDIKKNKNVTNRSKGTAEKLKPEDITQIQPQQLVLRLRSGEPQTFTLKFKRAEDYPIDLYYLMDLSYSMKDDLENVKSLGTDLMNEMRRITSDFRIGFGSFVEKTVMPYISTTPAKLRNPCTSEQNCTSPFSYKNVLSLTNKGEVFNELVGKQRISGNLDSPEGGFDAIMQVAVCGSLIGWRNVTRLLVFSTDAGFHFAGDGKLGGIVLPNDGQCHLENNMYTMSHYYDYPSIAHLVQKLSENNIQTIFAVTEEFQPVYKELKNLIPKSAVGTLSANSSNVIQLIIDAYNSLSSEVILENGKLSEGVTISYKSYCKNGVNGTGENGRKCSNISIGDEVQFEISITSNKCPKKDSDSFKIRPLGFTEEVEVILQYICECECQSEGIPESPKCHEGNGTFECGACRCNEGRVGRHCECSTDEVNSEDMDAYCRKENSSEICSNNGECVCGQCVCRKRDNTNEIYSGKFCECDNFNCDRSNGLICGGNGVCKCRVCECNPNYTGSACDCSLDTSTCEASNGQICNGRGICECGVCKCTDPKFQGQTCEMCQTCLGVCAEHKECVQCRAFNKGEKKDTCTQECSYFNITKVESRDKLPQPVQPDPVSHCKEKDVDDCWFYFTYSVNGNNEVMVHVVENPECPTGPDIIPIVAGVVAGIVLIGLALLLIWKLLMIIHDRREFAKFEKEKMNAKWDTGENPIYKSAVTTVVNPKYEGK
Method: The integrin α5β1 is also expressed on monocytes in the peripheral blood. To determine the dose at which the α5β1 sites on these circulating cells is saturated by M200, samples of peripheral blood were taken before the first dose on Study Day 1, Study Days 2 and 8, just before each subsequent dose, and on Study Day 43. The saturation of α5β1 sites on monocytes was determined by flow cytometry. The monocytes were identified by using antibodies to CD14. Bound M200 on the monocyte surface was detected by adding labeled anti-human IgG4. Unoccupied (free) α5β1 on the cells was detected by adding labeled IIA1. The percentages of monocytes and lymphocytes expressing α5β1 was also assessed.

[5] = system: VX2 tumors; settings: rabbit, in vivo, 10 mg/kg
[6] = human, in vivo, 10 mg/kg
[7] = Phase I dose-escalation study: pharmacokinetics (serum ELISA)

α5β1 integrin binding to fibronectin, sequence (P08648 42-894 limits assumed): as the sequence (P08648 42-894 limits assumed) above
α5β1 integrin binding to fibronectin, sequence (P08648 895-1049 limits assumed): as the sequence (P08648 895-1049 limits assumed) above
α5β1 integrin binding to fibronectin, sequence (P05556 21-798): as the sequence (P05556 21-798) above

B1: IIA1: parent mouse IgG1 class anti-α5β1 antibody shown to inhibit α5β1 integrin binding to fibronectin (antibody, V domains shown)
VH: MAVLGLLLCLVTFPSCVLSQVQLKESGPGLVAPSQSLSITCTISGFSLTDYGVHWVRQPPGKGLEWLVVIWSDGSSTYNSALKSRMTIRKDNSKSQVFLIMNSLQTDDSAMYYCARHGTYYGMTTTGDALDYWGQGTSVTVSS
VL: MDFQVQIFSFLLISASVIMSRGQIVLTQSPAIMSASLGERVTMTCTASSSVSSNYLHWYQQKPGSAPNLWIYSTSNLASGVPARFSGSGSGTSYSLTISSMEAEDAATYYCHQYLRSPPTFGGGTKLEIK
modifications: mus muscalus
With B1 as the molecule, how does the “inhibition of α5β1 integrin binding to fibronectin” value [1] read?
The value was “inhibit α5β1 integrin binding to fibronectin”.

B2: M200: chimeric IgG4 anti-α5β1 antibody derived from IIA1; generic name volociximab (antibody, V domains shown)
VH: MAVLGLLLCLVTFPSCVLSQVQLKESGPGLVAPSQSLSITCTISGFSLTDYGVHWVRQPPGKGLEWLVVIWSDGSSTYNSALKSRMTIRKDNSKSQVFLIMNSLQTDDSAMYYCARHGTYYGMTTTGDALDYWGQGTSVTVSS
VL: MDFQVQIFSFLLISASVIMSRGQIVLTQSPAIMSASLGERVTMTCTASSSVSSNYLHWYQQKPGSAPNLWIYSTSNLASGVPARFSGSGSGTSYSLTISSMEAEDAATYYCHQYLRSPPTFGGGTKLEIKDMSVDMSV
modifications: chimeric antibody
notes: chimeric IgG4 anti-α5β1 antibody derived from IIA1; generic name volociximab
With B2 as the molecule, how does the “Estimated peak serum level (Cmax) in humans” value (“Estimated peak serum level” for short) ([2]; 0.5 mg/kg, dose number 1) read?
The value was 11 µg/mL.

And the “Estimated trough serum level (Cmin) in humans” value (shortened to “Estimated trough serum level”) ([2]; 0.5 mg/kg, dose number 1)?
Its value is 1.5 µg/mL.

What about the “Estimated peak serum level” value ([2]; 0.5 mg/kg, dose number 2) of the same molecule?
The value was 11 µg/mL.

And the “Estimated trough serum level” value ([2]; 0.5 mg/kg, dose number 2)?
Its value is 1.6 µg/mL.

And the “Estimated peak serum level” value ([2]; 0.5 mg/kg, dose number 3)?
The value was 12 µg/mL.

And the “Estimated trough serum level” value ([2]; 0.5 mg/kg, dose number 3)?
Its value is 2 µg/mL.

What about the “Estimated peak serum level” value ([2]; 0.5 mg/kg, dose number 4) of the same molecule?
Its value is 13 µg/mL.

What about the “Estimated trough serum level” value ([2]; 0.5 mg/kg, dose number 4) of the same molecule?
Its value is 2.1 µg/mL.

What about the “Estimated peak serum level” value ([2]; 0.5 mg/kg, dose number 5) of the same molecule?
Its value is 13 µg/mL.

What about the “Estimated trough serum level” value ([2]; 0.5 mg/kg, dose number 5) of the same molecule?
The value was 2.2 µg/mL.

What about the “Estimated peak serum level” value ([2]; 1.0 mg/kg, dose number 1) of the same molecule?
Its value is 22 µg/mL.

What about the “Estimated trough serum level” value ([2]; 1.0 mg/kg, dose number 1) of the same molecule?
Its value is 3 µg/mL.

And the “Estimated peak serum level” value ([2]; 1.0 mg/kg, dose number 2)?
Its value is 22 µg/mL.

And the “Estimated trough serum level” value ([2]; 1.0 mg/kg, dose number 2)?
Its value is 3 µg/mL.

And the “Estimated peak serum level” value ([2]; 1.0 mg/kg, dose number 3)?
The value was 25 µg/mL.

And the “Estimated trough serum level” value ([2]; 1.0 mg/kg, dose number 3)?
Its value is 4 µg/mL.

What about the “Estimated peak serum level” value ([2]; 1.0 mg/kg, dose number 4) of the same molecule?
The value was 26 µg/mL.

What about the “Estimated trough serum level” value ([2]; 1.0 mg/kg, dose number 4) of the same molecule?
The value was 5 µg/mL.

What about the “Estimated peak serum level” value ([2]; 1.0 mg/kg, dose number 5) of the same molecule?
The value was 26 µg/mL.

And the “Estimated trough serum level” value ([2]; 1.0 mg/kg, dose number 5)?
The value was 5 µg/mL.

And the “Estimated peak serum level” value ([2]; 2.5 mg/kg, dose number 1)?
The value was 54 µg/mL.

And the “Estimated trough serum level” value ([2]; 2.5 mg/kg, dose number 1)?
Its value is 9 µg/mL.

What about the “Estimated peak serum level” value ([2]; 2.5 mg/kg, dose number 2) of the same molecule?
The value was 57 µg/mL.

What about the “Estimated trough serum level” value ([2]; 2.5 mg/kg, dose number 2) of the same molecule?
The value was 10 µg/mL.

And the “Estimated peak serum level” value ([2]; 2.5 mg/kg, dose number 3)?
The value was 64 µg/mL.

And the “Estimated trough serum level” value ([2]; 2.5 mg/kg, dose number 3)?
The value was 13 µg/mL.

And the “Estimated peak serum level” value ([2]; 2.5 mg/kg, dose number 4)?
The value was 67 µg/mL.

And the “Estimated trough serum level” value ([2]; 2.5 mg/kg, dose number 4)?
Its value is 14 µg/mL.

What about the “Estimated peak serum level” value ([2]; 2.5 mg/kg, dose number 5) of the same molecule?
The value was 68 µg/mL.

And the “Estimated trough serum level” value ([2]; 2.5 mg/kg, dose number 5)?
Its value is 15 µg/mL.

And the “Estimated peak serum level” value ([2]; 5.0 mg/kg, dose number 1)?
The value was 108 µg/mL.

What about the “Estimated trough serum level” value ([2]; 5.0 mg/kg, dose number 1) of the same molecule?
The value was 20 µg/mL.

What about the “Estimated peak serum level” value ([2]; 5.0 mg/kg, dose number 2) of the same molecule?
Its value is 114 µg/mL.

And the “Estimated trough serum level” value ([2]; 5.0 mg/kg, dose number 2)?
Its value is 24 µg/mL.

What about the “Estimated peak serum level” value ([2]; 5.0 mg/kg, dose number 3) of the same molecule?
Its value is 132 µg/mL.

What about the “Estimated trough serum level” value ([2]; 5.0 mg/kg, dose number 3) of the same molecule?
Its value is 33 µg/mL.

And the “Estimated peak serum level” value ([2]; 5.0 mg/kg, dose number 4)?
Its value is 141 µg/mL.

What about the “Estimated trough serum level” value ([2]; 5.0 mg/kg, dose number 4) of the same molecule?
Its value is 39 µg/mL.

And the “Estimated peak serum level” value ([2]; 5.0 mg/kg, dose number 5)?
The value was 147 µg/mL.

And the “Estimated trough serum level” value ([2]; 5.0 mg/kg, dose number 5)?
The value was 43 µg/mL.

And the “Estimated peak serum level” value ([2]; 10.0 mg/kg, dose number 1)?
Its value is 216 µg/mL.

And the “Estimated trough serum level” value ([2]; 10.0 mg/kg, dose number 1)?
The value was 51 µg/mL.

What about the “Estimated peak serum level” value ([2]; 10.0 mg/kg, dose number 2) of the same molecule?
Its value is 236 µg/mL.

What about the “Estimated trough serum level” value ([2]; 10.0 mg/kg, dose number 2) of the same molecule?
Its value is 66 µg/mL.

And the “Estimated peak serum level” value ([2]; 10.0 mg/kg, dose number 3)?
The value was 282 µg/mL.

What about the “Estimated trough serum level” value ([2]; 10.0 mg/kg, dose number 3) of the same molecule?
Its value is 101 µg/mL.

And the “Estimated peak serum level” value ([2]; 10.0 mg/kg, dose number 4)?
The value was 317 µg/mL.

And the “Estimated trough serum level” value ([2]; 10.0 mg/kg, dose number 4)?
The value was 131 µg/mL.

What about the “Estimated peak serum level” value ([2]; 10.0 mg/kg, dose number 5) of the same molecule?
The value was 346 µg/mL.

And the “Estimated trough serum level” value ([2]; 10.0 mg/kg, dose number 5)?
The value was 156 µg/mL.

What about the “predicted terminal half-life in humans” value ([2]; 15.0 mg/kg) of the same molecule?
Its value is “about 13 days”.

And the “Estimated Cmax range (54-140%) in humans” value ([2]; 15.0 mg/kg, dose number 1)?
The value was 175 to 453 µg/mL.

And the “Estimated peak serum level” value ([2]; 15.0 mg/kg, dose number 1)?
The value was 324 µg/mL.

What about the “Estimated trough serum level” value ([2]; 15.0 mg/kg, dose number 1) of the same molecule?
The value was 91 µg/mL.

What about the “Estimated Cmax range (54-140%) in humans” value ([2]; 15.0 mg/kg, dose number 2) of the same molecule?
The value was 197 to 512 µg/mL.

And the “Estimated peak serum level” value ([2]; 15.0 mg/kg, dose number 2)?
Its value is 366 µg/mL.

And the “Estimated trough serum level” value ([2]; 15.0 mg/kg, dose number 2)?
Its value is 126 µg/mL.

And the “Estimated Cmax range (54-140%) in humans” value ([2]; 15.0 mg/kg, dose number 3)?
Its value is 243 to 629 µg/mL.

And the “Estimated peak serum level” value ([2]; 15.0 mg/kg, dose number 3)?
Its value is 450 µg/mL.

What about the “Estimated trough serum level” value ([2]; 15.0 mg/kg, dose number 3) of the same molecule?
The value was 200 µg/mL.

What about the “Estimated Cmax range (54-140%) in humans” value ([2]; 15.0 mg/kg, dose number 4) of the same molecule?
The value was 283 to 733 µg/mL.

What about the “Estimated peak serum level” value ([2]; 15.0 mg/kg, dose number 4) of the same molecule?
The value was 524 µg/mL.

And the “Estimated trough serum level” value ([2]; 15.0 mg/kg, dose number 4)?
Its value is 268 µg/mL.

What about the “Estimated peak serum level” value ([2]; 15.0 mg/kg, dose number 5) of the same molecule?
The value was 592 µg/mL.

What about the “Estimated trough serum level” value ([2]; 15.0 mg/kg, dose number 5) of the same molecule?
The value was 332 µg/mL.

What about the “predicted time to steady state concentration” value ([2]; all doses <10.0 mg/kg) of the same molecule?
The value was no more than 4 weeks.

What about the “predicted time to steady state concentration” value ([2]; doses ≧10.0 mg/kg) of the same molecule?
The value was no more than 5 weeks.

And the dose-limiting toxicities ([3]; doses up to 15 mg/kg)?
The dose-limiting toxicities was “no dose-limiting M200 toxicities were observed”.

What about the tolerability in patients ([3]; doses up to 15 mg/kg) of the same molecule?
Its tolerability in patients is “well tolerated”.

And the “adverse events, intensity” value ([3]; fatigue, nausea, constipation, headache and anorexia)?
The value was “generally mild to moderate in intensity”.

What about the infusion reaction ([3]; the one patient who received 0.5 mg/kg) of the same molecule?
Its infusion reaction is “fever after the first dose”.

What about the monocyte saturation [4] of the same molecule?
The monocyte saturation was “monocyte saturation”.

And the “accessibility of subcutaneous and intramuscular VX2 tumors to antibody, assessed by IHC” value [5]?
The value was “accessible to M200”.

And the T1/2 [6]?
The T1/2 was 15.7 days.

And the mean trough level ([7]; 10 mg/kg, two weeks after the 1st dose)?
Its mean trough level is 82 µg/mL.

What about the “pharmacokinetics, linearity” value ([7]; slower clearance at the higher concentrations) of the same molecule?
The value was “non-linear pharmacokinetics”.
